Several values for one entry are separate records, joined by “and”; a condition that tells them apart may be missing. Equal entries are not always repeated. Where two headings read alike, the source gives them in different places.
Tests used:
Experiment in all cases: SPR
[1] = target: LRP1 cluster IV (CR.21–31), recombinant, secreted from Sf9 cells (human, UniProt Q07954 3332-3778)
[2] = target: T1, LRP1 cluster II (CR.3–10), recombinant, secreted from Sf9 cells (human, UniProt Q07954 852-1182)
T1 sequence: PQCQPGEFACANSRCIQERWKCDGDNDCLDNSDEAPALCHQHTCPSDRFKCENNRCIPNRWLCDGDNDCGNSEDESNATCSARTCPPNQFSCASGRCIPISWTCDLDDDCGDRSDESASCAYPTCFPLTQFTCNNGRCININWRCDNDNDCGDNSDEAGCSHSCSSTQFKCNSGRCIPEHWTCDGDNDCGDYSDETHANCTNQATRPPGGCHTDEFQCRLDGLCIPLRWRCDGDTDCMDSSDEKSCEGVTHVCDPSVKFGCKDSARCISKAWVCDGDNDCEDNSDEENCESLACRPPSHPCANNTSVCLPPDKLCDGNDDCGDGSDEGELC

[3] = target: T1, LRP1 cluster II (CR.3–10), recombinant, …; remark: listed apart in the source
[4] = target: T1, LRP1 cluster II (CR.3–10), recombinant, …; remark: listed apart in the source

Chain of LRP1 cluster IV (CR.21–31), recombinant, secreted from Sf9 cells (Q07954 3332-3778): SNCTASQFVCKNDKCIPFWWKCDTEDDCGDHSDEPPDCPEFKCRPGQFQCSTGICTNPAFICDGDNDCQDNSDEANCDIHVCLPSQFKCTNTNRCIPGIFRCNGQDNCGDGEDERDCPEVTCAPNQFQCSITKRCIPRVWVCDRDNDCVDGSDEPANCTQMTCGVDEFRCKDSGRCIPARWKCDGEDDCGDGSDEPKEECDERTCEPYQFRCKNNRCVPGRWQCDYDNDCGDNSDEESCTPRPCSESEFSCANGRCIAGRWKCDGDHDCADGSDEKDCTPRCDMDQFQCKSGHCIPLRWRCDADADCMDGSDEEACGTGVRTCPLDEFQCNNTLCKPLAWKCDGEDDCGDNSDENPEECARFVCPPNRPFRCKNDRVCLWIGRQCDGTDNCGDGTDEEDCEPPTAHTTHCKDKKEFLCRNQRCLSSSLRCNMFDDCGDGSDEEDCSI

B1: RAP (commercial; R&D, 4296-LR) (natural protein, human)
chain: YSREKNQPKPSPKRESGEEFRMEKLNQLWEKAQRLHLPPVRLAELHADLKIQERDELAWKKLKLDGLDEDGEKEARLIRNLNVILAKYGLDGKKDARQVTSNSLSGTQEDGLDDPRLEKLWHKAKTSGKFSGEELDKLWREFLHHKEKVHEYNVLLETLSRTEEIHENVISPSDLSDIKGSVLHSRHTELKEKLRSINQGLDRLRRVSHQGYSTEAEFEEPRVIDLWDLAQSANLTDKELEAFREELKHFEAKIEKHNHYQKQLEIAHEKLRHAESVGDGERVSRSREKHALLEGRTKELGYTVKKHLQDLSGRISRARHNEL
- Kd [1]: 1.4 nM
- Kd [2]: 1.97 nM and 2.4 nM
- Kd [3]: 1.67 nM and 1.2 nM
- Kd [4]: 2.66 nM

Reference: article PMC8239462 (The Journal of Biological Chemistry, 2021)
